± gives the half width of the 95% confidence interval.
Assay: folding stability dG unfold (combined trypsin and chymotrypsin); higher = more stable
In short: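 Designed mini-proteins (under 80 residues, no cysteine) in a PA-tagged cDNA display construct were digested with trypsin and chymotrypsin. Each protease was used at 11 concentrations (threefold dilutions) plus a no-protease condition, followed by sequencing. K50 was inferred by Bayesian fitting of sequencing counts, and unfolding free energy was derived against a sequence-predicted unfolded-state K50 and a shared folded-state K50, per protease or combined. Only designs with AlphaFold2 dimer inter-PAE above 15 were kept.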

Row | Sequence | folding stability dG unfold
1 | SAGGVLLEFPDGTTVEITVTTSTSTFKDPTTDKTVTKSSTTITVTRKTPDPVVTPVPASEAQRIFDSTSAGG [r13_809_JUSTAS] | 2.47 ± 0.21 kcal/mol
2 | SAEERVFLVPVERRPDGSVRLRFVRPDRVVELELPAGFTVEDALQALSAHPDLRVEVLEAHPDLVLVRGSAG [r14_404_TrMRF] | 2.46 ± 0.054 kcal/mol
3 | SKIKIEEVPEGEEVEIEIPETKKTITIVKKDDYLIIKVKDKKTGEEKEIVIKVPPENIEEVLKKIEELLKSA [r9_982_TrROS_Hall] | 2.11 ± 0.4 kcal/mol
4 | SAGGMTVTLEIEIPAEELSEEELKALLEELFPNAEVTVERLPDGTLRITIRVEVPPAPPEVVVLPDKSAGGS [r16_535_TrROS_Hall] | 2.88 ± 0.12 kcal/mol
5 | SADPPDAVKIEIRIYMMEYDPDGKWEQREFNIEIEVAPDGHIIIRLGNWWIVIDPKEGEVTEIFPGFRFSAG [r14_821_TrROS] | 3.14 ± 0.39 kcal/mol
6 | SAGGSAGGSMSPEEARALAEALAEALGEPDVEVLEVVQTENPAADSTTVTVTIRLPDGSVRVLSAGGSAGGS [r12_508_JUSTAS] | 1.63 ± 0.06 kcal/mol
7 | SAGGSAGGGGSSMTIVDPKDVPFGQTFTVTTYAPGGKKISTTTLTVDVPPPVWRTDGNGKWFLESAGGSAGG [r6_487_JUSTAS] | 0.4 ± 0.2 kcal/mol
8 | SAGDPEVVAEAEFPFTFPLAKIEVRISVYPDGTARIEVTITFPAPGKGNPKKPIKLRFRFEIKLAPDALSAG [r5_224_TrMRF] | 5.12 ± 0.36 kcal/mol
9 | SAGGSAGGSGAEEIAKALKELGVKKVEITVERNENGELTVTVRVEVEAPPPKVEVKTEEELKKSAGGSAGGS [r12_246_TrROS_Hall] | 0.939 ± 0.21 kcal/mol
10 | SAGGSAGGSSAVVPLPDVVLVVLTFPDGGPPVLALLFPPTGRVVFVHPDSVTVAPFAPGGSLLSAGGSAGGS [r12_536_TrMRF] | 1.51 ± 0.07 kcal/mol
11 | SAGGMTPEEARKLAEELAKKLEEEGKEVEVKVEVNKDGKVVKIEIKPEGEKVTITLPDGEKVLELELPSAGG [r13_693_TrROS_Hall] | 1.03 ± 0.25 kcal/mol
12 | SAGGSPMRIRDVEIEEFDPDAGRIEIRFPSNGNTIKIPIPPGHKSLKIKIRMKNGEPFEQTITIPPSAGGSA [r2_132_TrROS] | 1.01 ± 0.22 kcal/mol
13 | SENPVLKNRPLPVVGTTERTSVAKPGESLDVKELPSNGIVATTPDGSTVGITVTVDANGNVLSLEIKPDPSA [r9_1195_JUSTAS] | 0.164 ± 0.12 kcal/mol
14 | SAGGSAGGSAGMRLLTVEYFDENGNPLSVEEIELYIERPPPPFLELEIDPRTGEPRFTGLSAGGSAGGSAGG [r17_348_JUSTAS] | 1.36 ± 0.14 kcal/mol
15 | SKVIYVPPGATVEEILAAIKANKGKTVTIVMSREELERLKKALEEAGYEVEEVKVFEEEPYVVVKIKVKPSA [r9_1138_TrROS_Hall] | 3.84 ± 0.18 kcal/mol
16 | SAGGMKEITLPNGVKITEVIEKDGYYYIKIYNKKTGKVYEIKVKKGEKIEIKFPKGSTVTKIEIVKKSAGGS [r16_123_TrROS_Hall] | 2.8 ± 0.095 kcal/mol

Row | Sequence | folding stability dG unfold
17 | SAGGSAGGSAGMKPNEPDLVLLTTTVTLTTTETTTDEDGNTYTTTTTTTLTTTTLLPRGTSAGGSAGGSAGG [r17_523_TrROS_Hall] | 3.63 ± 0.1 kcal/mol
18 | SAGGSAGGSAGGTGPPPVKTLVIVANWTEEQAEALKKAFPDQEVTVYEIPGLPKTVAVVSSAGGSAGGSAGG [r17_254_TrMRF] | 1.16 ± 0.17 kcal/mol
19 | SMKIVKIEIEKIEIYSDEEFAKKTGIKPEAIYKNGKKKKVIKIPVKITLYDEKKGEKKEFEAEITIVIDVSA [r9_382_TrMRF] | 2.2 ± 0.38 kcal/mol
20 | SAGGSAGGSAKPDPGAPYPWKIVEVVPIRIDMYFKFPGEPFKMDIEIPILVMVDPDNGKIFSAGGSAGGSAG [r3_391_TrROS] | 2.7 ± 0.14 kcal/mol
21 | SATVTLVSVEKEGDKTTVTTRDPSGYTVTVTNPDGSIVLAPIPAEGAEAAIAAIKAAHPGVTVTLEAAASAG [r14_528_JUSTAS] | 1.15 ± 0.11 kcal/mol
22 | SAGGSAGGSAVPFVLPDGYVLEVEPDPETGLYRIRVTSPDGRTYEFTAPPDVPLADIPVVIDDSAGGSAGGS [r12_261_TrMRF] | 2.95 ± 0.053 kcal/mol
23 | SAGGMIEVFVEGLTLEETLRRLAEEYPDVPEVVVFFPDGTAVFFRRDGDEVEVVEVVPVGPVAPDELSAGGS [r8_225_TrMRF] | 2.93 ± 0.061 kcal/mol
24 | SAGIKIKDISRDPNGYVEVTIVYPPGKSIKEIIELIRKLFGFKIEKVEIYPSPNGVYITYRFRIPEGAISAG [r5_774_TrROS] | 4.13 ± 0.12 kcal/mol
25 | SEKVKITIEVWRPPGWWYVKIKLPDNGQEITYPFDSAEDFKEQIKKWLGLPPDNVKITDVEVYPMPPDDFSA [r9_909_TrROS] | 2.52 ± 0.22 kcal/mol
26 | SAGGSDGEMITYPFLLPDGYLITIWISPENGQITEIEIMPIPAPPPEPPVEPKYGRDDGNGNKKYDSAGGSA [r2_78_TrROS] | 1.52 ± 0.16 kcal/mol
27 | SAGGSAMKIEITVEKNENGELTITVKIYDKNGKLVKEIKLKVKTEEEAKKALKELAEKLGIEVEPESAGGSA [r15_242_TrROS_Hall] | 3.36 ± 0.44 kcal/mol
28 | SAGGKVTLIEVEFEGGNPTISLTVTNADGSVEAVFVSPSPTDVLYATATLTVGGHPVVVVARASKDESAGGS [r16_672_TrMRF] | 1.8 ± 0.12 kcal/mol
29 | SMSYTVTVEYPDTGKTTTTPIPPDALEVSVSLSGPSTIRITITTDVNGATTTTTSTVTLPPPALPPSTLLSA [r9_1067_JUSTAS] | 1.06 ± 0.22 kcal/mol
30 | SAGGSALADRIAELARELGFEPVEIRYDPETGEVYALVRKPGGLLLRMRVEVDDDELHIEIEPLTDSAGGSA [r15_561_TrMRF] | 5.18 ± 0.095 kcal/mol
31 | SAGEELIKKLAEELNLEVEIVSVEVDEETPTITVEVRVRNKDGEELTVRITITYDKETDEVHIEVEVLPSAG [r5_929_TrROS_Hall] | 4.08 ± 0.2 kcal/mol
32 | SAGGSAGGSMTVETTPLATSRDPESDNTVTLTRTTVTFPDGTVRTETWTVTTAPDGTTTTTVSSAGGSAGGS [r12_250_JUSTAS] | 0.999 ± 0.049 kcal/mol

Source: the supplement of paper PMC12764529
